In paper PMC2855492:

Tests used:
[1] = target: human neonatal Fc receptor (FcRn) (human) (UniProt P55899)
[2] = target: monkey FcRn (monkey (cynomolgus monkeys in the same paragraph)) (UniProt Q8SPV9)
[3] = target: monkey FcRn (monkey (cynomolgus monkeys in the same paragraph)) (UniProt Q8SPV9); remark: listed apart in the source
[4] = target: human neonatal Fc receptor (FcRn) (human) (UniProt P55899); experiment: SPR

Row | Substance | serum half-life in hFcRn mice (mFcRn-/-, hFcRn+), 2 mg/kg i.v. [1] [days] | serum half-life in cynomolgus monkeys, 7.5 mg/kg i.v. [2] [days] | serum half-life in cynomolgus monkeys, 4 mg/kg i.v. [3] [days] | fold improvement in FcRn affinity [4] [fold]
1 | Xtend-EGFR (humanized cetuximab huC225 IgG1 with the Fc substitutions M428L/N434S) (antibody) | 13.9 | 4.7 | – | –
2 | Xtend-VEGF (bevacizumab IgG1 with the Fc substitutions M428L/N434S) (antibody) | 12 | – | 31.1 | 11
